In US20220220204A1 (published 2022):
Read-outs that look alike come from different tables or passages of the source.

T1: LAG-3 expressed on CHO-K1 cells (UniProt P18627 23-525)
T1 chain: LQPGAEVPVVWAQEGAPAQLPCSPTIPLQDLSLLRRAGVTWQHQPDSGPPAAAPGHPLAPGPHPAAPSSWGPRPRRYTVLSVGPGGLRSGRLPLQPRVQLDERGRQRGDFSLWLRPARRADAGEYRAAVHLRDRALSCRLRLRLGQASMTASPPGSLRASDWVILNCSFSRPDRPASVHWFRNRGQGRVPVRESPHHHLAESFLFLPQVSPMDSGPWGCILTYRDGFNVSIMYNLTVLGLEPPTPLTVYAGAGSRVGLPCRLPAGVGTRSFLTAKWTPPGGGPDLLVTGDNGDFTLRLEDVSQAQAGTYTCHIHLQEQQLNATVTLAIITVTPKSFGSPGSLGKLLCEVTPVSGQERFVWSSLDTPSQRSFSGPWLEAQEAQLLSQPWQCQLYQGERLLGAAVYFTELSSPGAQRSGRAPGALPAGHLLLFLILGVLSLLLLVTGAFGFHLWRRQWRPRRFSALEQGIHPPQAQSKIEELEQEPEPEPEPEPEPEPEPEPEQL

B1: PDL1HCv1 (antibody, V domains shown)
VH: EVQLVQSGAEVKKPGASVKVSCKASGYIFTGYGITWVRQAPGQGLEWMGEIFPRRVQTYYSEKFKGRVTMTTDTSTSTAYMELRSLRSDDTAVYYCARDYDPYFALDYWGQGTTVTVSS
VL: DIQMTQSPSSLSASVGDRVTITCRASQDVSTAVDWYQQKPGKAPKLLIYSASYRYTGVPDRFSGSGSGTDFTFTISSLQPEDIATYYCQQHYSIPFTFGQGTKLEIKR
B2: PDL1HCv5 (antibody, V domains shown)
VH: EVQLVQSGAEVKKPGASVKVSCKASGYIFTGYGITWVRQAPGQGLEWMGEIFPRRVQTYYSEKFKGRVTMTADTSTSTAYMELRSLRSDDTAVYYCARDYDPYFALDYWGQGTTVTVSS
VL: DIQMTQSPSSLSASVGDRVTITCRASQDVSTAVDWYQQKPGKAPKLLIYSASYRYTGVPDRFSGSGSGTDFTFTISSLQPEDIATYYCQQHYSIPFTFGQGTKLEIKR

Key:
Assay in all cases: FACS binding
[1] = target: T1, LAG-3 expressed on CHO-K1 cells
[2] = target: T2, PD-L1 expressed on CHO-K1 cells (UniProt Q9NZQ7 19-290)
T2 sequence (Q9NZQ7 19-290): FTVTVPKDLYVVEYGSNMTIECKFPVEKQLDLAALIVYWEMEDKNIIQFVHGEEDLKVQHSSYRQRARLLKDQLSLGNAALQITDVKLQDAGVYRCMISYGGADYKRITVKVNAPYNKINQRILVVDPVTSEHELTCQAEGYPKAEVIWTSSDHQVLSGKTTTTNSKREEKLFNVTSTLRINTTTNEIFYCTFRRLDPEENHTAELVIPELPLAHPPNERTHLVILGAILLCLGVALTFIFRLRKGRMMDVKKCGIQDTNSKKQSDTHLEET

[3] = target: T2, PD-L1 expressed on CHO-K1 cells; remark: listed apart in the source
[4] = target: T1, LAG-3 expressed on CHO-K1 cells

Row | Binder | EC50 [1] [nM] | EC50 [2] [nM] | EC50 [3] [nM] | EC50 [4] [nM]
1 | B1 | 0.0376 | 0.651 | 0.205 | 
2 | B2 |  | 0.311 |  | 8.42
